From publication PMC4252038, “H2O2 Inhibits ABA-Signaling Protein Phosphatase HAB1” (PLoS ONE, 2014)

Target: the molecule itself
Test: SEC; size exclusion chromatography of His6-MBP-HAB1(171–511 aa) treated with 0.3 mM H2O2 for 30 min at 30°C; monomer to disulfide-linked dimer

B1: His6-MBP-HAB1(171–511 aa) wild type (domain or fragment, Arabidopsis thaliana, UniProt Q9CAJ0 171-511, looked up)
chain: NSNHLVKGRSVYELDCIPLWGTVSIQGNRSEMEDAFAVSPHFLKLPIKMLMGDHEGMSPSLTHLTGHFFGVYDGHGGHKVADYCRDRLHFALAEEIERIKDELCKRNTGEGRQVQWDKVFTSCFLTVDGEIEGKIGRAVVGSSDKVLEAVASETVGSTAVVALVCSSHIVVSNCGDSRAVLFRGKEAMPLSVDHKPDREDEYARIENAGGKVIQWQGARVFGVLAMSRSIGDRYLKPYVIPEPEVTFMPRSREDECLILASDGLWDVMNNQEVCEIARRRILMWHKKNGAPPLAERGKGIDPACQAAADYLSMLALQKGSKDNISIIVIDLKAQRKFKTRT
notes: HAB1 protein phosphatase 2C, Arabidopsis thaliana, phosphatase domain, residues 171-511; In some assays the protein was treated with 0.3 mM or 1 mM H2O2 (30 min, 30°C) beforehand; the treatment is told by the assay; After 0.3 mM H2O2 it is a mixture of monomers and disulfide-linked dimers (C186, C274), after 1 mM higher oligomers; also called HAB1 phosphatase domain; wild type HAB1; source: E. …
stoichiometry N: 2
